Data published in US20230272054A1, “COMBINATION THERAPIES FOR THE TREATMENT AND PREVENTION OF BIOFILMS” (priority 2020, published 2023).
“Also recorded” adds a separate entry of the source. Read-outs that look alike come from different tables or passages of the source.

How the values were obtained:
[1] = test system: HMGB1 full-length; conditions: CITED Xin et al., 2000; Table 1 lists under mHMGB1, p605 says full-length HMGB1; cited from earlier work
[2] = molecular target: T1, IHFNTHI, native integration host factor (DNABII protein) of nontypeable Haemophilus influenzae (nontypeable Haemophilus influenzae …, UniProt P43723 1-96; P43724 1-94)
T1 sequence 1: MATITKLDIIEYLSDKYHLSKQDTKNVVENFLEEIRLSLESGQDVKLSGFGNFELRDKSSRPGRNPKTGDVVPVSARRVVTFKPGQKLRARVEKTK
T1 sequence 2: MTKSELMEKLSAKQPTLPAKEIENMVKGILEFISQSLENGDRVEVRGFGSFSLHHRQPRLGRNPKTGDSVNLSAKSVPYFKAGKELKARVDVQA

[3] = molecular target: T2, HUNTHI, native histone-like protein HU (DNABII protein) of nontypeable Haemophilus influenzae (nontypeable Haemophilus influenzae …, UniProt P43722 1-90)
T2 sequence: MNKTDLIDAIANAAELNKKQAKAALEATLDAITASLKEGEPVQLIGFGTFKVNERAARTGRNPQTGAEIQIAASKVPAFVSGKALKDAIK

[4] = molecular target: T2, HUNTHI, native histone-like protein HU …; test: SPR (Biacore); mHMGB1 immobilised, HUNTHI injected; the text value differs from Table 1 (103)
[5] = test system: biofilms formed by UPEC, B. cenocepacia, NTHI, Enterobacter spp, S. aureus, K. pneumoniae, A. baumanii, P. aeruginosa, E. faecium; test: Disruption of 24 h bacterial biofilms in vitro by HMGB1 isoforms (LIVE/DEAD stain, CLSM, COMSTAT average thickness); conditions: 24 h biofilms of nine pathogens; 200 nM protein, 16 h (S. aureus 800 nM rHMGB1; E. faecium 800 nM, 1 h)
[6] = test system: HJ DNA; test: Electrophoretic mobility shift assay (EMSA), binding to HJ DNA; conditions: 20 nM 6-carboxyfluorescein HJ DNA, 50-500 nM protein, non-denaturing PAGE
Experimental: Arrows indicate the HJ DNA-protein complex.
FIG. 11A provides that NEM-modified rHMGB1 was confirmed by triton acetic acid urea gel (TAU gel). […] Arrows indicate the HJ DNA-protein complex.
Electrophoretic mobility shift assay (EMSA): EMSA was performed as previously described (Devaraj et al., 2019).

[7] = test system: E. faecium biofilms; test: Disruption of 24 h E. faecium biofilms in vitro (CLSM, COMSTAT average thickness); conditions: 24 h biofilms, 1 h incubation; non-bactericidal dose
[8] = test system: Human neutrophils; test: NET formation by neutrophils incubated with HMGB1 isoforms (CLSM); format: cell-based; conditions: 200 nM protein, 3.5 h
Experimental: Neutrophils were fixed, then labeled as described above to visualize the NETs.
Visualization of NETs structure upon incubation of neutrophils with various isoforms of HMGB1: Human neutrophils were isolated from blood using the EASYSEP™ isolation kit (Stemcell Technologies Inc.). […] NETs were fixed in formalin, blocked with 10% normal goat serum (Life Technologies), and labeled with α-dsDNA monoclonal antibody (1 μg), and α-neutrophil elastase polyclonal antibody (1 μg) or naive rabbit and mouse isotype controls (1 μg) in 200 μl PBS for 16 h hours at 4° C. NETs were washed with PBS and incubated for 1 h with 1:200 dilution goat α-rabbit IgG conjugated to ALEXAFLUOR® 594, goat α-mouse IgG conjugated to ALEXAFLUOR® 488, and 1:500 dilution wheat germ agglutinin conjugated to ALEXAFLUOR® 350 (PMN membrane stain). NETs were imaged with a Zeiss LSM 800 confocal microscope (Carl Zeiss Inc.) and rendered with Zeiss Zen software.

[9] = test system: neutrophils in BAL; test: Inflammatory cell recruitment into lungs of B. cenocepacia-challenged mice (H&E, flow cytometry of BAL); format: in vivo, C57BL/6 mice; conditions: B. cenocepacia-infected and simultaneously treated, 0.2 nmol, 18 hpi
[10] = as above; format: in vivo, C57BL/6 mice; conditions: B. cenocepacia-challenged mice, 0.2 nmol, 72 hpi
[11] = test system: pro-inflammatory and anti-inflammatory cytokines; test: Quantitation of cytokines in middle ear fluids (cytometric bead array); format: in vivo, chinchilla (Chinchilla lanigera); conditions: six days after NTHI challenge, one day after completion of treatment
Experimental: Quantitation of cytokines in middle ear fluids: To quantitate cytokines in middle ear fluids (MEF), a BD™ Cytometric Bead Array was performed with fluids collected at the time of animal sacrifice. With BD™ human-specific Flex Sets, each MEF was individually examined for relative quantity of IL-1β, IL-4, IL-6, IL-8, IL-10, IL12-p70, IL-13, IL-17A, TNF or IFNγ according to manufacturer's instructions. MEFs from each animal were assayed individually. Data were captured on a BD ACCURI™ C6 cytometer (BD Biosciences) and analyzed with FlowJo software (FlowJo, LLC). The concentration of cytokines in each MEF was determined using a standard curve and calculated using GraphPad Prism software.

[12] = test system: eDNA lattice within K. pneumoniae biofilms; test: Visualization of eDNA lattice structure within K. pneumoniae biofilms (immunofluorescence, CLSM); format: cell-based, Klebsiella pneumoniae; conditions: 24 h K. pneumoniae biofilms, 200 nM protein, 16 h
Excerpt: Per the model as disclosed herein, HMGB1 would compete with DNABII proteins, wherein instead of stabilization, HMGB1 would de-stabilize these HJ-like structures and consequently disrupt the biofilm.

[13] = test system: NTHI biofilms; test: Disruption of NTHI biofilms in the middle ears of chinchillas with experimental otitis media; format: in vivo, chinchilla (Chinchilla lanigera); conditions: 200 nM mHMGB1 and/or 342 nM Fabs
Experimental: As a negative control, an equivalent volume of sterile saline was delivered. One day after receipt of the second therapeutic dose, all animals were sacrificed and NTHI within the middle ear biofilms was enumerated. The relative amount of mucosal biofilm and mucosal inflammation were also qualitatively assessed.
First, effectiveness of single treatment was evaluated. To this end, a subset of animals in each cohort was sacrificed one day after receipt of a single therapeutic dose (FIG. 16H) whereas the remaining animals in each cohort were sacrificed 24 h after receipt of a second treatment.
Chinchilla model of experimental otitis media (OM): Adult chinchillas (Chinchilla lanigera) were obtained from Rauscher's Chinchilla Ranch, LLC. These outbred, non-specific pathogen-free animals were randomly divided into cohorts based on body weight and both male and female animals were enrolled. […] A concentration of 342 nM was based on prior studies wherein 5 μg intact IgG per 0.1 ml volume was injected into the middle ears of chinchillas (Goodman et al., 2011; Novotny et al., 2016; and Novotny et al., 2019).
Disruption of NTHI biofilms resident within the middle ears of chinchillas with experimental OM: Both middle ears of each animal were challenged with 1000 CFU NTHI strain 86-028NP by direct injection to induce experimental OM. Four days later, NTHI mucosal biofilms fill >50% of the middle ear (Novotny et al., 2011). […] To determine the outcome of treatment, animals were sacrificed one day after completion of antibody therapy, images of mucosal biofilms captured with a Zeiss SV6 dissecting microscope, then mucosal biofilms and middle ear mucosa collected, homogenized and plated on to chocolate agar to semi-quantitate the non-planktonic bacterial load within the middle ear (Goodman et al., 2011). […] As an additional assessment, the amount of biofilm in each middle ear was qualitatively determined. […] For both quantitation of bacterial load and qualitative assessment of mucosal biofilm, each middle ear was considered independent.

[14] = test system: B. cenocepacia; test: Murine model of lung infection by B. cenocepacia, bacterial burden; conditions: 0.2 nmol i.t. at 24 hpi; 72 hpi; α-EF-Tu labeling
Experimental: Intratracheal challenge of the murine lung with B. cenocepacia and treatment with HMGB1 isoforms: B. cenocepacia strain K56-2, was cultured in LB broth (Difco, Md.) at 37° C. overnight at 200 rpm. Bacterial concentration was adjusted before each experiment based on OD at 600 nm. C57BL/6 mice were infected intratracheally (i.t.) with 10^7 colony forming units (CFU) of B. cenocepacia. […] Animals were euthanized 24 or 48 hpi, and bronchoalveolar lavage (BAL) was collected with 1 ml of PBS plus 1 mM EDTA. […] The slides were permeabilized with 0.5% Triton X-100 for 10 minutes, blocked with 10% normal goat serum (Abcam) for 30 minutes and stained with a monoclonal antibody against E. coli Elongation Factor-Tu (α-EF-Tu; cross reacts with B. cenocepacia) (LSBio) overnight to label B. cenocepacia. The samples were then stained with goat α-mouse IgG Alexa Fluor 488 (Abcam) for 1 h at RT, mounted with fluoroshield media with DAPI (Abcam), visualized via the Nikon Eclipse Ti at 40× magnification (Nikon Instrument Inc. Americas) and analyzed by ImageJ software (NIH). To enumerate bacterial burden, the animals were euthanized 18 or 72 hpi, bronchoalveolar lavage was collected with 1 ml of PBS plus 1 mM EDTA, an aliquot of BAL was serially diluted and plated on LB agar. […] Neither animals nor samples were excluded from evaluation in any study.

[15] = test system: UPEC biofilms; test: Disruption of 24 h UPEC biofilms in vitro (CLSM, COMSTAT average thickness); conditions: mHMGB1 200 nM, 16 h

HJ DNA (cited)
Kd [1]: 10 nM

B1: mHMGB1 (C45S), recombinant human HMGB1 with an engineered single amino acid mutation C45S (other)
chain: MGKGDPKKPRGKMSSYAFFVQTCREEHKKKHPDASVNFSEFSKKSSERWKTMSAKEKGKFEDMAKADKARYEREMKTYIPPKGETKKKFKDPNAPKRPPSAFFLFCSEYRPKIKGEHPGLSIGDVAKKLGEMWNNTAADDKQPYEKKAAKLKEKYEKDIAAYRAKGKPDAAKKGVVKAEKSKKKKEEEEGEEDEEDEEEEEDEEDEDEEEDDDDE
notes: also called modified HMGB1
Kd [2]: 579 nM
Kd [3]: 103 nM
Kd [4]: 104 nM

B2: mHMGB1: recombinant human HMGB1 with engineered single amino acid mutation C45S, SEQ ID NO: 52 (protein)
chain: MGKGDPKKPRGKMSSYAFFVQTCREEHKKKHPDASVNFSEFSKKSSERWKTMSAKEKGKFEDMAKADKARYEREMKTYIPPKGETKKKFKDPNAPKRPPSAFFLFCSEYRPKIKGEHPGLSIGDVAKKLGEMWNNTAADDKQPYEKKAAKLKEKYEKDIAAYRAKGKPDAAKKGVVKAEKSKKKKEEEEGEEDEEDEEEEEDEEDEDEEEDDDDE
modifications: mHMGB1 (C45S)
biofilm average thickness compared to control [5]: significantly disrupted bacterial biofilms; also recorded: fully retained the anti-biofilm activity
binding to HJ DNA (EMSA) [6]: maintained its ability to bind HJ DNA; also recorded: retained its ability to bind to HJ DNA
dose required to achieve a similar reduction in biofilm average thickness, E. faecium [7]: required a higher dose
induction of NET formation by neutrophils [8]: intertwined NETs specifically formed; also recorded: more strongly induced NET formation
neutrophils in BAL (flow cytometry) [9]: eliminated the pro-inflammatory activity; also recorded: significant reduction of neutrophils in BAL compared to those treated with rHMGB1
infiltration of inflammatory cells into lungs (H&E) [10]: no signs of inflammation
IL-10 in middle ear fluids [11]: significantly elevated concentration; also recorded: statistically significant increase
biofilm bacteria (FilmTracer FM 4-64) [12]: substantial reduction in biofilm bacteria
web-like eDNA lattice structure within biofilm [12]: disruption of the web-like structure; also recorded: notably disrupted
middle ears that cleared NTHI / culture-negative ([13]; 24 h after one dose, 6 middle ears): 50%
NTHI in middle ears after two doses ([13]; 24 h after second dose): further reduced
relative amount of remaining NTHI mucosal biofilm ([13]; one or two doses): highly effective
B. cenocepacia stained within the lung tissue [14]: significantly reduced bacterial load
UPEC biofilm disruption in the presence of CbpA (negative control) [15]: could still disrupt UPEC biofilms
UPEC biofilm disruption in the presence of exogenously added RuvA ([15]; competitor dose-dependent): lost in the presence of competitors; also recorded: unable to disrupt biofilms formed by UPEC
